Laboratory results reported in patent US20260275312, “CRISPR NUCLEASE POLYPEPTIDES AND GENE EDITING SYSTEMS COMPRISING SUCH” (ARBOR BIOTECHNOLOGIES, INC., published 2026).
Changes are numbered by the printed parent chain.

What was measured:
[1] = molecular target: T1, Nuclease H T783R/E43R/A170R (synthetic construct, T783R,E43R,A170R); test: cell_activity; HEK293T; PAM AAC; settings: tags: N-term SV40 NLS, XTEN linker + C-term nucleoplasmin NLS
T1 chain: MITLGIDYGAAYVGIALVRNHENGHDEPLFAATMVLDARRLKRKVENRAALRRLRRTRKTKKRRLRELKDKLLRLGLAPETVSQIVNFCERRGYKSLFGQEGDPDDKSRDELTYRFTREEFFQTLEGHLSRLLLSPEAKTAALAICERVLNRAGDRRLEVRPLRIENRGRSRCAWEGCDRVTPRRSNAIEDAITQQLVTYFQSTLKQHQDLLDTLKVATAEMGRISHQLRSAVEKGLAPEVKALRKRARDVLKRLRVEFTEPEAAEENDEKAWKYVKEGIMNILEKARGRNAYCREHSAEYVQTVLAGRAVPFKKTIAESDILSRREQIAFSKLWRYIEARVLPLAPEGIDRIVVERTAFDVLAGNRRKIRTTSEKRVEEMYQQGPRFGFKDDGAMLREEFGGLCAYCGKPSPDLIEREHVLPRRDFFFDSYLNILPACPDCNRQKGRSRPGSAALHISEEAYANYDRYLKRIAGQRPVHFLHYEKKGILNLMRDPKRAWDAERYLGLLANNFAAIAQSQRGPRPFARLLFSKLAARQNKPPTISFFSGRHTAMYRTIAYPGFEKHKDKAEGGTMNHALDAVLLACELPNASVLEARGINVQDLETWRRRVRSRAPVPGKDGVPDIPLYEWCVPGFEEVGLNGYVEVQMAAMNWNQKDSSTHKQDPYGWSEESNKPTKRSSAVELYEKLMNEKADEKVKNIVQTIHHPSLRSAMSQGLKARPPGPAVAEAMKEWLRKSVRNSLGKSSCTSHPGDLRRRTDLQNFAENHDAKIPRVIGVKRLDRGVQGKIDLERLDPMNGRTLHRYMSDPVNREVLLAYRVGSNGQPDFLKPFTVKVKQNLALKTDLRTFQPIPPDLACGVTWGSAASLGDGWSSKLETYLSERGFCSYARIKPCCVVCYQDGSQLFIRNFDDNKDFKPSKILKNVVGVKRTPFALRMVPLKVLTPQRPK
Protocol: (§1) HEK293T cells were transfected with plasmids expressing the Nuclease H polypeptides and the gRNAs provided herein following the methods provided in Example 1 above. Gene editing efficiencies were determined by NGS following the methods also provided in Example 1. The NGS results were analyzed also following the methods provided in Example 1 above.
(§2) Each Nuclease H variant and RNA guide (see Table 16) was cloned as described in Example 9. HEK293T cells were further transfected, followed by NGS analysis, as described in Example 10. For each target, indel ratios, referring to the percentage of NGS reads comprising indels, were calculated for the reference Nuclease H (SEQ ID NO: 64) and for each Nuclease H variant. The indel ratios shown in Table 18 were calculated as the average of two bioreplicates, each of which contained two technical replicates.

[2] = molecular target: T2, Nuclease H L54R/L323R/T783R (synthetic construct, L54R,L323R,T783R); test: cell_activity; HEK293T; PAM AAC; settings: tags: N-term SV40 NLS, XTEN linker + C-term nucleoplasmin NLS
T2 chain: T1 chain with R43E, L54R, R170A, L323R
Protocol: as §1, §2

B1: H AAVS1-T5 RNA guide ; AAVS1-T5 target (H) (ssRNA ; dsDNA)
RNA: GGCUAUAAUCCAUGCUGACCGUUUCAAUCAACCUGAUCUCUCUGCUUGCGCUGCAGGCUUCAUAAGAUCAGUAGGUUGAAAAGAGCAUCCGUCCGACAUGCACUCCGGGAUGGGGCAGUCCCGGCUCUUGCGGUUCCCGAUGCAGUUAUGUGUCCGCGGAACACGGUGUCGGACACGUCGCAAGACAGGAUGUGAGCCCAUUAUCCACAUUAGGAUCAAUGUACGCAUGAGCAGUCCGCAAUGCCGGGGACGCU
DNA 1: GGCTATAATCCATGCTGACC
DNA 2: GGTCAGCATGGATTATAGCC
[1]
  activity: 0.184 indel ratio
[2]
  activity: 0.4 indel ratio
